In publication PMC5636811, “High-fidelity DNA replication in Mycobacterium tuberculosis relies on a trinuclear zinc center”:

Target: DnaE1 (replicative DNA polymerase);β-clamp (Mycobacterium …, UniProt P9WNT7;P9WNU1 1-1184;1-402, |)
Assay: cryo-EM 2D class average
Conditions: protein: recombinant;recombinant; tags: His tag cleaved with HRV 3C protease;; copies: 1;2

Chain of DnaE1 (replicative DNA polymerase);β-clamp (P9WNT7 whole entry, chain 1 of 2): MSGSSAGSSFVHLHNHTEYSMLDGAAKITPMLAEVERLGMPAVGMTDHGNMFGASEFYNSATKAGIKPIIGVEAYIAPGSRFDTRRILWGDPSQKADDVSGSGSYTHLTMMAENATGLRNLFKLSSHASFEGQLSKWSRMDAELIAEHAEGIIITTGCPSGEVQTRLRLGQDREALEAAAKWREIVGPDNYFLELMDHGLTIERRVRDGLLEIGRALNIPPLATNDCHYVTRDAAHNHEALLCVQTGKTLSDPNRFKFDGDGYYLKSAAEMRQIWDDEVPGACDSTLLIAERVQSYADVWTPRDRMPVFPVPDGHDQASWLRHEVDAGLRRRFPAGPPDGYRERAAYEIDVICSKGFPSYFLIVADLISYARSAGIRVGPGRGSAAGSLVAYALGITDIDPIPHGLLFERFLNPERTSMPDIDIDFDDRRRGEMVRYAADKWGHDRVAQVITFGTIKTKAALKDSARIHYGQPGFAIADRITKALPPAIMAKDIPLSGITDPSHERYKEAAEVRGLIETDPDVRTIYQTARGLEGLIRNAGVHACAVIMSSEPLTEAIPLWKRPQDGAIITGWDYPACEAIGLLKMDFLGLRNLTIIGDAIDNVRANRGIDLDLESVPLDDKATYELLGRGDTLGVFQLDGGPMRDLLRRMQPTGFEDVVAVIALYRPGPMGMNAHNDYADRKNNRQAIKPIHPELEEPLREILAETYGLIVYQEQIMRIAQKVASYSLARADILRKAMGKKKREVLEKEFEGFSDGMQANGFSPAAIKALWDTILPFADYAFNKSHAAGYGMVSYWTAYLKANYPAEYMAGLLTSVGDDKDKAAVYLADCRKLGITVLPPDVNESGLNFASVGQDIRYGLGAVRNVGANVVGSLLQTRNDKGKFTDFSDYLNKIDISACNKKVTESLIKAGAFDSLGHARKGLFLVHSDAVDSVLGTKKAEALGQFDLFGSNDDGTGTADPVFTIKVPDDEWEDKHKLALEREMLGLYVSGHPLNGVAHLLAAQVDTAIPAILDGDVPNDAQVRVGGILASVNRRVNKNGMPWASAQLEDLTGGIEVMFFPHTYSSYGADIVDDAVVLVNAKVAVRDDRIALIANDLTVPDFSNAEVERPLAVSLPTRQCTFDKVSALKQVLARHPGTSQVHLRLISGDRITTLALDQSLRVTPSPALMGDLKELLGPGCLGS
Chain of DnaE1 (replicative DNA polymerase);β-clamp (P9WNU1 whole entry, chain 2 of 2): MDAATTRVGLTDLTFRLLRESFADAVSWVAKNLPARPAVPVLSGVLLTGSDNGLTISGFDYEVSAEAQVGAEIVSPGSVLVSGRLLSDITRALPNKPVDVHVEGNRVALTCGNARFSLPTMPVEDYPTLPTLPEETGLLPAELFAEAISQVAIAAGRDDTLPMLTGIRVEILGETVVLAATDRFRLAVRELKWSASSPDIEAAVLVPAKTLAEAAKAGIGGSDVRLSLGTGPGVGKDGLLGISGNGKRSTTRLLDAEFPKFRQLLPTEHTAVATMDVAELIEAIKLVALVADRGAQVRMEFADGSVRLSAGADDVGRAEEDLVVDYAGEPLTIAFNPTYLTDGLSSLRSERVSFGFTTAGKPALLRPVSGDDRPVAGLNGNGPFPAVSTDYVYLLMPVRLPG

B1: mismatched primer-template cryo-EM substrate (dsDNA)
DNA 1: CCCCTCAGGAGTCCTTCGTCCTAGTACTACTCC
DNA 2: GGAGTAGTACTAGGACGAAGGACGT
modifications: phosphorothioate between last two nt of primer (GsT)
  binding result: binds
